Assay results as given in patent publication US20240092867A1 (UNIVERSITY OF CHICAGO, published 2024).

Assays:
laminin-521 [1] = target: T1, laminin-521 (human, UniProt O15230 36-3695; P55268 33-1798; P11047 34-1609); assay: SPR, laminin-521 immobilised, GF flowed, Langmuir fit
T1 construct: Full-length recombinant human laminin isoform (BioLamina); chains read from the isoform name
Method: (§1) A450 nm represents absorbance at 450 nm. BSA-coated wells served as negative controls (n=4, mean±SEM). Signals greater than 0.1 (grey box) are considered to be significant. […] Experimental curves were fitted with Langmuir binding kinetics.
(§2) The obtained binding curves were fitted with Langmuir binding kinetics to calculate specific dissociation constants (KD) (FIG. 1B).
(§3) SPR analysis was performed as described previously². In brief, measurements were made with a Biacore 3000 SPR system (GE Healthcare). […] VEGF-A165, PDGF-BB, or PlGF-2 was flowed at increasing concentrations in the running buffer at 20 μL/min. The sensor chip was regenerated with 50 mM NaOH for every cycle. Specific bindings of GFs to laminin were calculated by comparison to a non-functionalized channel used as a reference. Experimental results were fitted with Langmuir binding kinetics using BIAevaluation software (GE Healthcare).

[2] = target: T2, recombinant laminin α3 2928-3150 protein (linker domain and LG4 domain) (human, UniProt Q16787 2928-3150); assay: SPR, α3 2928-3150 immobilised, GF flowed, Langmuir fit
T2 construct: range 2928-3150; Made in HEK-293F cells; also called laminin alpha 3 LG domain recombinant protein
T2 sequence: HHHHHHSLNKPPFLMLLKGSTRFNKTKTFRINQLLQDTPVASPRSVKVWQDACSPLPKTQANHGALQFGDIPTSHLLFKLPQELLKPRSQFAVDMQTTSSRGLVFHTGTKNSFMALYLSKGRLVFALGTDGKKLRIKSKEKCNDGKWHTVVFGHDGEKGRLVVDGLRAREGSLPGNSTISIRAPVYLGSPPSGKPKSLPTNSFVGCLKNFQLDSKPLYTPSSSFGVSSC
Method: Affinity of GFs against recombinant laminin LG domains. ELISA plates were coated with 1 μg/mL (A) α3₂₉₂₈₋₃₁₅₀, (B) α4₈₂₆₋₁₈₁₆, or (C) α5₃₀₂₆₋₃₄₈₂ and further incubated with 1 μg/mL of VEGF-A165, VEGF-A121, PlGF-2, PlGF-1, PDGF-BB, or FGF-2 solution. Bound GFs were detected using a specific antibody for each GF (n=4, mean±SEM). Statistical analyses were done using the Mann-Whitney U test by comparing the signals obtained from the laminin domain- and the BSA-coated wells. *p<0.05, **p<0.01. […] A SPR chip was functionalized with the laminin α3₂₉₂₈₋₃₁₅₀ recombinant protein (˜1000 RU), and each GF was flowed over the chip at indicated concentrations. Curves represent the specific responses (in RU) to laminin. Experimental curves were fitted with Langmuir binding kinetics.
(§4) Because the GFs that bound to laminins have also been previously reported to bind to other ECM glycoproteins through HBDs, it was hypothesized that HBDs of laminins might be responsible for the interactions between GFs and laminin. To address this hypothesis, ELISA assays were repeated for VEGF-A165, PlGF-2 or FGF-2 in the presence of heparin added in excess (10 μM). […] To further confirm this, the inventors tested direct GF binding to the LG domains from human laminin α3, α4 and α5, within which HBDs of laminin were localized.
SPR analysis was performed as described previously². […]

laminin-521 [3] = target: T1, laminin-521; assay: SPR; laminin-521 immobilised on the chip (~2000 RU), VEGF-A165 flowed at 10-100 nM; Langmuir fit
Method: as §1, §2, §3

human plasma-derived vWF = target: T3, human plasma-derived vWF (human, UniProt P04275 764-2813); assay: SPR; plasma-derived vWF immobilised (~2000 RU), VEGF-A165 flowed at 6.25-100 nM; 1:1 Langmuir fit [panel C]
T3 construct: mature; also called plasma-derived purified vWF; von Willebrand factor
Method: A450 nm represents absorbance at 450 nm. Signals from VEGF-A121 served as a baseline, and bovine serum albumin (BSA) served as a negative control (n=4, mean±SD). […] Experimental curves were fitted with (C) 1:1 Langmuir fit model and (D) heterogeneous ligand-parallel reactions binding.
SPR assays were performed as described previously2. In brief, measurements were made with a Biacore X100 SPR system or Biacore 3000 SPR system (GE Healthcare). […] Recombinant human VEGF-A165, VEGF-A121, or PDGF-BB was flowed at increasing concentrations in the running buffer at 30 μL/min. The sensor chip was regenerated with glycine at pH 2 for every cycle.

laminin-111 = target: T4, laminin-111 (human, UniProt P25391 18-3075; P07942 22-1786; P11047 34-1609); assay: ELISA; plate coated with 10 µg/mL laminin, 1 µg/mL VEGF-A165 in solution without or with 10 µM heparin, bound GF detected with antibody [panel A]
T4 construct: Full-length recombinant human laminin isoform (BioLamina); Chain composition is read from the isoform name
Method: (§5) FIGS. 2A-C. […] ELISA plates were coated with 10 μg/mL laminin and further incubated with a 1 μg/mL (A) VEGF-A165, (B) PlGF-2, or (C) FGF-2 solution in the absence or presence of excess (10 μM) heparin. Bound GFs were detected using a specific antibody for each GF (n=4, mean±SEM). Statistical analyses were done using the Mann-Whitney U test by comparing the signals with and without heparin. *p<0.05, **p<0.01.
as §4

laminin-211 = target: T5, laminin-211 (human, UniProt P24043 23-3122; P07942 22-1786; P11047 34-1609); assay: as above
T5 construct: Full-length recombinant human laminin isoform (BioLamina); chains read from the isoform name
Method: as §5, §4

laminin-411 = target: T6, laminin-411 (human, UniProt Q16363 25-1823; P07942 22-1786; P11047 34-1609); assay: as above
T6 construct: Full-length recombinant human laminin isoform (BioLamina); chains read from the isoform name
Method: as §5, §4

laminin-421 = target: T7, laminin-421 (human, UniProt Q16363 25-1823; P55268 33-1798; P11047 34-1609); assay: as above
T7 construct: Full-length recombinant human laminin isoform (BioLamina); chains read from the isoform name
Method: as §5, §4

T7 sequence (Q16363 25-1823 limits assumed, chain 1 of 3): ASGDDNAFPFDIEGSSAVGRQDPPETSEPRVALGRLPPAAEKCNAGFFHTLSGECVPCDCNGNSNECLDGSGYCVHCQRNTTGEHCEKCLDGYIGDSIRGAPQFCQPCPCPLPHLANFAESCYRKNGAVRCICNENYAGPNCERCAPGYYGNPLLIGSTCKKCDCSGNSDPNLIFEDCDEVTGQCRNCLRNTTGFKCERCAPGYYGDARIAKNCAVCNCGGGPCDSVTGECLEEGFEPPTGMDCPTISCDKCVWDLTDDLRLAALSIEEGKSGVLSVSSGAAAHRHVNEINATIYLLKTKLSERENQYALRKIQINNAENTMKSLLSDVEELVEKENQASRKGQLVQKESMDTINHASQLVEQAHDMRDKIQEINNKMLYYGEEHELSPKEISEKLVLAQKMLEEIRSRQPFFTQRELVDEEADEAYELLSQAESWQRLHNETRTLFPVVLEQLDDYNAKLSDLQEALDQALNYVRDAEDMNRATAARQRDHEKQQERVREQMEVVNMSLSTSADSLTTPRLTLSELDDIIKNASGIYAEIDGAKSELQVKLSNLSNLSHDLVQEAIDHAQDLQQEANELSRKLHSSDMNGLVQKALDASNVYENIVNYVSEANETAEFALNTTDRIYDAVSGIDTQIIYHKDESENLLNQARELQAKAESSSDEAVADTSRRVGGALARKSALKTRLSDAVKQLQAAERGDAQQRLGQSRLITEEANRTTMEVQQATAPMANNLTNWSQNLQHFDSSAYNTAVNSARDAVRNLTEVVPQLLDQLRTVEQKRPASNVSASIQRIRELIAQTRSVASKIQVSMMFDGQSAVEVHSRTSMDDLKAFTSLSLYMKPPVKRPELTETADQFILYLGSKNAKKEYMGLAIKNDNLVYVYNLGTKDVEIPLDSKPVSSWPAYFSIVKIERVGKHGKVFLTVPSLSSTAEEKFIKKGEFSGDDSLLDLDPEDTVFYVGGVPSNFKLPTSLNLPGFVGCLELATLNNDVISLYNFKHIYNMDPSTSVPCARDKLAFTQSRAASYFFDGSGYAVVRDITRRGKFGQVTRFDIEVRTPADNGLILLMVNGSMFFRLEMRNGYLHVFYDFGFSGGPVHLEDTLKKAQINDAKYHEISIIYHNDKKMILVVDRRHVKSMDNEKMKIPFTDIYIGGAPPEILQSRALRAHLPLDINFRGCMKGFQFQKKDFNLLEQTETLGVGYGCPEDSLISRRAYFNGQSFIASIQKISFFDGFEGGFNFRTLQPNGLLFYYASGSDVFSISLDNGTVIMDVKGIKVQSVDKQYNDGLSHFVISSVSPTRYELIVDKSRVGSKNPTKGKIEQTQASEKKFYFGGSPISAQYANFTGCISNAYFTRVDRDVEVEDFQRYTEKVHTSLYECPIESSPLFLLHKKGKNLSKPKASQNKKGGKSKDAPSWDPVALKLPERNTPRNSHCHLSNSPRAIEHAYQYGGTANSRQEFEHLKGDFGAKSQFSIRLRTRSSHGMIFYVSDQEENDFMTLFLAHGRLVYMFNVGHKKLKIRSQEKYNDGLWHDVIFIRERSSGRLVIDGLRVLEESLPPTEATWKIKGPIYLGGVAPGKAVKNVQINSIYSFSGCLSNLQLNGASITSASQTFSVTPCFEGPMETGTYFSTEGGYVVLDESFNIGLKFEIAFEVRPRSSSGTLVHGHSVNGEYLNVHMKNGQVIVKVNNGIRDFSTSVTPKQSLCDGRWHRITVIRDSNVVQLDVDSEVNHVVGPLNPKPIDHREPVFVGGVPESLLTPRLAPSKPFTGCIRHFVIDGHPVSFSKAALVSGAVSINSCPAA
T7 sequence (P55268 33-1798 limits assumed, chain 2 of 3): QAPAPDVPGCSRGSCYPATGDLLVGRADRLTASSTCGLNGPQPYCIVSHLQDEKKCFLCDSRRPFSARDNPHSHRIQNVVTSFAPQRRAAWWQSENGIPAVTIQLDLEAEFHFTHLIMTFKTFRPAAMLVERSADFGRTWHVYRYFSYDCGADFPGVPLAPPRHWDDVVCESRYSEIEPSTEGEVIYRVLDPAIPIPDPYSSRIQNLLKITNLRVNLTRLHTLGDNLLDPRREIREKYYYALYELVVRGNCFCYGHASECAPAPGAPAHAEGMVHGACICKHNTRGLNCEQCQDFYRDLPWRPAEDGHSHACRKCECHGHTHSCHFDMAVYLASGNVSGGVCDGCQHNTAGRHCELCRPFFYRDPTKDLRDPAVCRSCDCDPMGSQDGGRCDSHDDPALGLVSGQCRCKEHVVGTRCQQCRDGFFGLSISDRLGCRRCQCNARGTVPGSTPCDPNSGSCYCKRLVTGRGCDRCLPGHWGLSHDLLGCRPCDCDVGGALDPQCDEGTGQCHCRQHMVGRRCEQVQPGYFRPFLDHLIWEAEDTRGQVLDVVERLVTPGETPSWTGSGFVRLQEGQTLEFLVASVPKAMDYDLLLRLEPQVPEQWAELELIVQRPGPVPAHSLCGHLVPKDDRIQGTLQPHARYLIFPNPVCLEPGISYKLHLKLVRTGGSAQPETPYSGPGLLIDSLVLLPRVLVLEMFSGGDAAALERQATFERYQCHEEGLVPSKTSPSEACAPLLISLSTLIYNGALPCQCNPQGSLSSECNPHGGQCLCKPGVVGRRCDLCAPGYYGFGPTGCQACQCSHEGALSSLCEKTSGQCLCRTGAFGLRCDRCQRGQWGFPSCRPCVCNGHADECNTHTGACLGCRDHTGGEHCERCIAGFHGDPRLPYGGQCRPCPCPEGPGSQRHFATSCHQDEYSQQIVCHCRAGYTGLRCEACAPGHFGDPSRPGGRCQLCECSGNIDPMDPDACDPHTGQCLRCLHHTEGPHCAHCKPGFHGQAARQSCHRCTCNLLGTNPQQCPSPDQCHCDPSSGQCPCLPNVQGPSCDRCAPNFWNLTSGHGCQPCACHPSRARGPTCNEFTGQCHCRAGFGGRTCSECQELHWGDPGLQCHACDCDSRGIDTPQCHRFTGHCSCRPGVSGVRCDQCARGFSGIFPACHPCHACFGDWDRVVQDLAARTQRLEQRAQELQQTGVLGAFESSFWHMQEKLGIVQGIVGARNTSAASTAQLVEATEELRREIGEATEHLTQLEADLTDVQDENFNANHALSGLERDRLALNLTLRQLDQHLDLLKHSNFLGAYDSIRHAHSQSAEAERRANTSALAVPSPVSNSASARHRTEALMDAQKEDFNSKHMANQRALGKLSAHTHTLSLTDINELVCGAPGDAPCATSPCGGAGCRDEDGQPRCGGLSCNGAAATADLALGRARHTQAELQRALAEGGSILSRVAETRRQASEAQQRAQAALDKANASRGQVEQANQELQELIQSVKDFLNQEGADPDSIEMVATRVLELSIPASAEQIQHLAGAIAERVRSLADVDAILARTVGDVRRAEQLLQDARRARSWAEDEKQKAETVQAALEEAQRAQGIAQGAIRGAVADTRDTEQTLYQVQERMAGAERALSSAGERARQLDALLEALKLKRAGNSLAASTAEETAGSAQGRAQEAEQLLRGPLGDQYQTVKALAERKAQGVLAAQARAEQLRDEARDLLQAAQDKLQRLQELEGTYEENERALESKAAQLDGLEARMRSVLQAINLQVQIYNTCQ
T7 sequence (P11047 34-1609 limits assumed, chain 3 of 3): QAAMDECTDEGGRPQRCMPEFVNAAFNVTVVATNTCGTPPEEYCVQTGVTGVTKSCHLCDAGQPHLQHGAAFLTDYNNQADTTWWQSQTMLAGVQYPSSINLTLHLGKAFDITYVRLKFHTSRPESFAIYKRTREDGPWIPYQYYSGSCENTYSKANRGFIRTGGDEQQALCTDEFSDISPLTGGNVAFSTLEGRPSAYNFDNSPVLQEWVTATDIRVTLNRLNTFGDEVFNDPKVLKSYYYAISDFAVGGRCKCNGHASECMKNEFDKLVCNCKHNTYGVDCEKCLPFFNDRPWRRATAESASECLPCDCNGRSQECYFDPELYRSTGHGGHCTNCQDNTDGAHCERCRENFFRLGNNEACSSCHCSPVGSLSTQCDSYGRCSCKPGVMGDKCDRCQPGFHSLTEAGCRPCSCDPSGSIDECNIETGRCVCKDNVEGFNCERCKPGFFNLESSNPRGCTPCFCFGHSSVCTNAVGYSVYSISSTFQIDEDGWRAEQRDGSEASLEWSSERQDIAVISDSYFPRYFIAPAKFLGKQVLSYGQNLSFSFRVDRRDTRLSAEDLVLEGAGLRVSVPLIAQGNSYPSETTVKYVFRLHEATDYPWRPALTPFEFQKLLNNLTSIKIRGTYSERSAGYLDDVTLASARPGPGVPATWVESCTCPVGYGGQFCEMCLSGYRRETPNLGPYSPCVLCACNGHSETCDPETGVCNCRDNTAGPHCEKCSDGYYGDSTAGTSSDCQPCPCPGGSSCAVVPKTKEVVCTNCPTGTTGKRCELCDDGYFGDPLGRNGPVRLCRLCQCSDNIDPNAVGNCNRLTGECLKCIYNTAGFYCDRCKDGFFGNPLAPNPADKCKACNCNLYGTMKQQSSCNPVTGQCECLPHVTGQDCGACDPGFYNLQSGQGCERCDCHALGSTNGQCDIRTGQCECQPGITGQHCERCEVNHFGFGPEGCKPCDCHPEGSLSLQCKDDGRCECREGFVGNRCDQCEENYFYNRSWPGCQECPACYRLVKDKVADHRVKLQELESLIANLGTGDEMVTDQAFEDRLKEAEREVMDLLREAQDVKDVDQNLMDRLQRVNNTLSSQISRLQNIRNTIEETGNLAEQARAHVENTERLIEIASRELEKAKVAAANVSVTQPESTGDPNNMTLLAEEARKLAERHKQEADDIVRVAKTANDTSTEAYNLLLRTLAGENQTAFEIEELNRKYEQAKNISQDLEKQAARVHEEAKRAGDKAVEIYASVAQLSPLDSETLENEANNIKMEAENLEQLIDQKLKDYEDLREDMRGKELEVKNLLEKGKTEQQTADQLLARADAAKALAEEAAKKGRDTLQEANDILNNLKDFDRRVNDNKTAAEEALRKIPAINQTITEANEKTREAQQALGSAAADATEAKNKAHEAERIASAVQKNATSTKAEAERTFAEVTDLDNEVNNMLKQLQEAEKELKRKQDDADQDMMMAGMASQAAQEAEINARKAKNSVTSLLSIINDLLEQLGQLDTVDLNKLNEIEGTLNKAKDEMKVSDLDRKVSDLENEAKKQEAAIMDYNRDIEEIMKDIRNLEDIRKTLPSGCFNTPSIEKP

B1: vascular endothelial growth factor (VEGF)-A165 (ligand, human, UniProt P15692-4 27-191, looked up)
chain: APMAEGGGQNHHEVVKFMDVYQRSYCHPIETLVDIFQEYPDEIEYIFKPSCVPLMRCGGCCNDEGLECVPTEESNITMQIMRIKPHQGQHIGEMSFLQHNKCECRPKKDRARQENPCGPCSERRKHLFVQDPQTCKCSCKNTDSRCKARQLELNERTCRCDKPRR
notes: mature; Purchased in mature form, not glycosylated
For B1, the Kd (laminin-521 [1]) was 5.8 nM, the Kd [2] was 1.2 nM and the Kd (laminin-521 [3]) was 5.78 nM. It also gave a koff (laminin-521 [3]) of 0.00324 s⁻¹, a kon (laminin-521 [3]) of 561000 M⁻¹ s⁻¹ and a Kd (human plasma-derived vWF) of 27.4 nM. B1: binds (laminin-111); binds (laminin-211); binds (laminin-411). B1: binds (laminin-421).
